# From publication PMC4427203, “Tah1 helix-swap dimerization prevents mixed Hsp90 co-chaperone complexes” (Acta Crystallographica Section D: Biological Crystallography, 2015)
# T1: Tah1 (full-length yeast Tah1) (S. cerevisiae, UniProt P25638 1-111)
# T1 construct: Tah1, yeast (S. cerevisiae), synthetic full-length gene expressed from pRSET-A; In the crystal two Tah1 chains form a helix-swapped dimer; in solution Tah1 is mainly monomeric; also called TPR domain of Tah1
# T1 sequence (looked up): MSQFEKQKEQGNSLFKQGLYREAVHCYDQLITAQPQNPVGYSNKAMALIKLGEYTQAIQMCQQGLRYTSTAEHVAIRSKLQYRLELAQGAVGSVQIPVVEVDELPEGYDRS
# T2: Flag-Tah1 (S. cerevisiae, UniProt P25638 1-111)
# T2 construct: Tah1, yeast
# T2 sequence (looked up): T1 sequence (looked up)
# B1: Hsp90 peptide EDASRMEEVD (peptide)
# peptide: EDASRMEEVD
# notes: C-terminal peptide of Hsp90 with the conserved MEEVD motif; also called MEEVD peptide of Hsp90; SRMEEVD peptide
# B2: Hsp90 600-709 (domain or fragment)
# chain: not shown
# notes: Hsp90 C-terminal fragment, residues 600-709; Used at 70 µM in the pull-down; also called cHsp90
# Experiments:
# [1] = molecular target: T1, Tah1 (full-length yeast Tah1); experiment: crystal structure; Tah1 at 10 mg/ml with 5 mM … peptide; sitting drop, 100 mM MES pH 6.0, 200 mM ammonium chloride, 20% PEG 6000, 4°C; refined to 2 Å; details: both partners purified
# Flag-Tah1 = molecular target: T2, Flag-Tah1; experiment: pull-down; 70 µM Flag-Tah1 and Hsp90 600-709 with increasing AIP 172-315 or full-length AIP (5-10 molar excess); 20 mM HEPES pH 7.5, 150 mM NaCl, 10% glycerol, 0.5% IGEPAL, 2 mM EDTA; captured on anti-Flag M2 magnetic beads; eluate on SDS-PAGE; details: both partners purified
Binder,binding result [1],binding result (Flag-Tah1)
B1,binds,
B2,,binds
